Laboratory results published in US20100233157A1 (published 2010).

How the values were obtained:
[1] = molecular target: T1, Human Fas (CD95) on the cell surface (human, UniProt P25445 26-335); assay: cell-based or functional assay
T1 sequence: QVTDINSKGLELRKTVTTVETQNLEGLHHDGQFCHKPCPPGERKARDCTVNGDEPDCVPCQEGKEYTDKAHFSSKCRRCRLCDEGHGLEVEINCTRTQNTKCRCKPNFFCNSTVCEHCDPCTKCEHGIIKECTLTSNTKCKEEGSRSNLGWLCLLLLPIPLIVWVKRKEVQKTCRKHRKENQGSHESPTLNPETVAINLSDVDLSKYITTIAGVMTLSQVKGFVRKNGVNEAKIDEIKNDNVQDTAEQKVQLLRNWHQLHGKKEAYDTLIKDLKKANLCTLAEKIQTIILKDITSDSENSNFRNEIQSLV

[2] = molecular target: T2, Mouse Fas on the cell surface (mouse, UniProt P25446 22-327); assay: flow cytometry histograms (FL1-H) on mouse PBL, FITC anti-human kappa secondary
T2 construct: whole, on cells; also called Fas on peripheral blood lymphocytes of BALB/c mice
T2 sequence (looked up): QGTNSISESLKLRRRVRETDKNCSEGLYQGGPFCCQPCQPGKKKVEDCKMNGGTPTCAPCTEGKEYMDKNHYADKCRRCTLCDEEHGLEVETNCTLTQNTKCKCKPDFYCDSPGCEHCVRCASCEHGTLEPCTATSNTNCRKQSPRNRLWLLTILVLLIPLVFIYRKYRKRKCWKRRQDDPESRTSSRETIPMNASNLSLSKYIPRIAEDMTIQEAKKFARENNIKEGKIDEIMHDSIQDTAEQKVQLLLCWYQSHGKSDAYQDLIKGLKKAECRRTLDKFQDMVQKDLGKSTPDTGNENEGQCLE
From the text: (§1) Reactivity of F45D9-γ1 or F45D9-γ4 mAb with Fas molecules of various species was initially screened using primary blood cells or lymphocytes cell lines. The binding of F45D9-γ1 or F45D9-γ4 mAb was explored by immunofluoresce staining and flow cytometry analysis, in human PBMC, purified human resting T cells, activated human T cells, peripheral blood lymphocytes (PBL) derived from BALE/c mice, rat, dog and pig, and in B cell lines or PBL derived from common marmoset, cynomolgus macaque, olive baboon, rhesus macaque and chimpanzee. Resting and activated human T cells were prepared as described in Example 7. B cells lines from monkeys were obtained from Biomedical Primate Research Center (Rijswijk, The Netherlands), and were cultured in RPMI 1640 medium supplemented with 2 mM glutamax, 100 UI/mL penicillin, 100 μg/mL streptomycin and 10% fetal bovine serum, at 37° C. and 5% CO₂. After washing in PBS cells (0.2−0.4×10⁶ cells/well) were incubated in staining buffer (PBS/1% FBS) containing F45D9-γ1 or human IgG control antibodies (10-20 ug/ml) in a 96-well U-bottom plate for 30 min on ice, in a 100 ul/well volume. Cells were then washed once with staining buffer, and further incubated for 30 min on ice with 1:30 dilution of FITC-conjugated rabbit F(ab′)₂ anti-human kappa (DakoCytomation Cat. F0434) or FITC-conjugated rabbit F(ab′)₂ anti-human IgG (DakoCytomation Cat. F0056). […]

[3] = molecular target: T1, Human Fas (CD95) on the cell surface; assay: flow cytometry on the human B cell line SKW6.4, FITC anti-human IgG secondary, MFI after subtraction of the control human γ1 staining
[4] = molecular target: T3, Cynomolgus macaque Fas on the cell surface (cynomolgus macaque, UniProt Q9TSN4 26-331); assay: flow cytometry histograms (FL1-H) on cynomolgus macaque cells (cell type not printed on the sheet), FITC anti-human kappa or FITC anti-human IgG secondary
T3 construct: whole, on cells; also called Fas on cynomolgus macaque B cell line and PBL
T3 sequence (looked up): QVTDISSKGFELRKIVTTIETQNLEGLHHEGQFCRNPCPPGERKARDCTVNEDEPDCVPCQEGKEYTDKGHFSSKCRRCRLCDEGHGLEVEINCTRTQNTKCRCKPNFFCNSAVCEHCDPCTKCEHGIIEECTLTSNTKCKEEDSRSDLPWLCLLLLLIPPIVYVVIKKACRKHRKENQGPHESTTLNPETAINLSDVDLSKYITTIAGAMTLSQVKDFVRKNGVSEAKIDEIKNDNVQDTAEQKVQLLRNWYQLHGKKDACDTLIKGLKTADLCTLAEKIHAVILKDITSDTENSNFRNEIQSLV
From the text: as §1

- IC50 of inhibition of rhFasL-induced apoptosis in SKW6.4 cells (Annexin-V/PI, flow cytometry) [1]: 0.2 nM
- IC50 of inhibition of rhFasL-induced apoptosis in activated human T cells (Annexin-V/PI, flow cytometry) [1]: 0.02 nM
- share of binding capacity on Jurkat cells at which complete blocking of FasL-induced apoptosis is achieved [1]: ≥ 12.5%
- binding result [2]: no binding
- EC50 (read off the curve) [3]: ~0.8 µg/mL
- binding result [4]: no binding
B1: F45D9-γ1 mAb (recombinant human mAb T17/B2-1G4, gamma-1 isotype) (antibody, V domains shown)
VH: QVQLQQWGAGLLKPSETLSLICAVYGGSFSTYYWTWIRQPPGKGLEWIGEINHRGTTNYSPSLKSRVTISVDTSKNHISLNLTSVTAADTALYYCARGLLWIGEGDYGLDVWGQGTTVTVSS
VL: DIQMTQSPSSLSASVGDRVTITCRASQGIRRWLAWYQQKPEKAPKSLIYAASSLQSGVPSRFSGSGSGTDFTLTISSLQPEDFATYYCQQYNSYPYTFGQGTKLEIKR
notes: Whole human IgG1 (γ1fa allotype) with human kappa light chain, made in CHO DG44 cells; also called IgG1; T17/L18/B2-1G4
